Measurements taken from a protein production outcome set (Wang et al. 2014).

Assay: label from the status in PepcDB records

Sequence	protein production
HGGHRQYAKEILSTSSAAMASQRSFLGLEPTIKKIPAFRAVYLRHKGYNKSIALSWQKLMAWGFEHQISSQARQIGIHHDNPSITPLAECRYIAALEVEEGFRAQGLLGVMEFPPTLCAVFEVQGRYGDVLGLIDYVYHEWLPQSGYEAKTIPAFALYQKNHFLDPLGNFQLDFCLPVGVV	failed
MQKQAELYRGKAKTVYSTENPDLLVLEFRNDTSAGDGARIEQFDRKGMVNNKFNYFIMSKLAEAGIPTQMERLLSDTECLVKKLDMVPVECVVRNRAAGSLVKRLGIEEGIELNPPLFDLFLKNDAMHDPMVNESYCETFGWVSKENLARMKELTYKANDVLKKLFDDAGLILVDFKLEFGLYKGEVVLGDEFSPDGSRLWDKETLEKMDKDRFRQSLGGLIEAYEAVARRLGVQLD	failed
MPSLNQIFFGPPGTGKTYATVEATLQILDQPFLAKNAGSRSALKARFDELLAAGDVRFVTFHQSFSYEDFVEGLRATTDEQGQIRYEVVSGVFRSLCESVATELSGKYRAFKVGDRYGTGYKVTRATPDVVEIEKPQGKHLPIGMSLLNTLASYVDAGTFTIEELGNGRWDKKVPGSVLDPFLVNGYKNFLPSMVEHMLGKNEEGLFEPAPVQHSDAKVLIIDEINRGNVSRIFGELITLIEPSKRAGADEALEVTLPYSKERFSIPGNIHLIGTMNTADRSLAALDIALRRRFTFIEVPPNPELLDEVEVDGIAIDELLSLMNQRIAALLDRDHCLGHAYFMPLKDEPTLERLEGIFREQILPLLQEYFFEDWQRIQWVLNDQRKAPENSFLIQLSQDLIALFGDTVTVGQSNERWELNLPAFQKIESYLGVIDHNLKVGAPLEAKNVRTDGIDIRQSADGCIDVYRGGQHIKPTKPLLRELASKHGISSTSASGSELNTRSLGRKIIKFLSEQQG	failed
MYLVCGEALFDVFSLESAARSNELGFTAIAGGSPFNVAVGLRRLGVEAALFGGLSSDYLGARLRRVLEEEGVDCGFLVPSDAPTTLAMVGLDASGSAQYQFRGEGCADRQVRLEHLPTLDGRIRGLHVGSYTLVVTPVADTLLALVRRESGRRLVSLDPNVRLDPQPDIDLWRRRVEAFASHAHLIKASEEDLALLYPGRDPGEVARGWLNPRCRLVFVTHGGAGASVHCTHGSWSRPADTALPLRDTVGAGDTFQAATLAYLRRLDADSPAGLAALSREAIDAMLAFAIRAAAVTCSRVGPDLPFAHEL	failed
MTQLDTWLANTKPLIPVIVIDDLVHAIPMAKALVAGGVHLLEVTLRTEAGLAAISAIKKAVPEAIVGAGTVCTADDFQKAIDAGAQFIVSPGLTPELIEKAKQVKLDGQWQGVFLPGVATASEVMIAAQAGITQLKCFPASAIGGAKLLKAWSGPFPDIQFCPTGGISKDNYKEYLGLPNVICAGGSWLTESKLLIEGDWNEVTRRASEIVKLSDI	not failed
MKLENQSETTANIQLNAPELVEANIAEVTSITIEKFLGSFTSVTRLLLNLSPLKNFHKDGLVSGKWNEPKDVPECLLSQLETFVWRRLDWGREEEKEIATYILKNGRRLKKETFTTNPIESEGLNKLKERLKVLNGLDGVQAPLFRKDGVVVGKWNQPKNVPQCLLSHLETFVWTRYRWEREEEKEEATYILKNARLLSKATFSTNIIDLKEFHWFKK	failed
MAHGMPTQGKVTISVDEYSSNPTQALTHYNINQSRFQPPHVHMVDPISYDTPKPGGHTRFVCVSDTHSRTDGIQMPYGDVLLHTGDFTELGLPSEVKKFNDWLGSLPYEFKVVIAGNHELTFDKDFMTELVKQDYYRFPSVSKLKPKDFDNVQSLLTNCVYLQDSDVTVKGFRIYGTPWTPWFNGWGFNLPRGQSLLDKWNLIPEGVDILMTHGPPLGFRDWVPKELQRVGCVELLNTVQRRVRPKLHVFGGIHEGYGIMTDGYTTFINASTCTVSFQPTNPPIVFDLPNPTSS	failed
MGPMRTLTVAIDWILIILFVISIILLIYALVKKNKKMAKYAGIAAAIIFILLFIAMRFALTVKPGQ	failed
MKYAIREYKGKNVDLSKLSSIIENYFREENFVTQSSQHPRGYVIQAKKGGIFRTILGMDRAFTIVLVGDSSDFKVQIGVGKWLQDLGVAAIEAFLITPVVAFVEVPESLWSFELEHEFWQFLENQINLGIQ	failed
MDSAAPDCTAKCRSLKHALDVLSVITKGSERQIKIFLSSYCYNAATVKDAFGRNALHLVSSCGKKAVLDWLIEKGVDLLHGVSLYMQDKEGLSPLDLLMKDRPAHVVFKNTDPTEVYTWGDNTNFTLGHGSQNSKHHPELLDLFSRSRVYVKQVVLCKFHSVFLSQQGQVYTCGHGRGGRLGHGDEQTCLVPRLVEGLSGHSCSQVAAAKDHTVVLTEDGCVYTFGLNTFHQLGIIPPPSSCNVPRQSRSSKHGHNSAQLQLIPGERQLNLKKVLVSGGCMEYKVDPEHLTENGGQKICILAMDGAGRVFCWRSLSSSLKQCRWAYPRQVSISDIALNRNEILFVTQDGEGFKGKWFEDKRKNSEKKADILPNLHHSSSDVSCVSDTNSVYERIRLEKLPFAHRAVSVSTDPSGCNFAILQSDPKTSLYEIPVVSSSSFFEEFGKLLRETDEMDSFHDVTFQVGNRLFPAHKYVLAVRSDFFQKLFLSDGTLLELTDVYRKDEDAAGCHLFVVEKVHPDLFEYLLQFMYTDTCDFLTHGFKPRMIMNKKSEDSKGSPESRLHAVNCHVDDKQKSAFEVYRSNQAHTLSERQKSKPKSSKKGKGVGEDDPVKMLQNVAKKFGLSNLSSRLDGVRYENEKINVIAKKTGNKLKLSQKKCSFLYDVTMKSVDGKEFPCHKCVLCARLEYFHSMLSRSWIEASSCAALEMPIQAEILKVILDYLYTDEAVVIKESQNVDFVCSVLVVADQLLITRLKEMCEVALAENLTLKNAAMLLEFASMYNAEQLKLSCLQFIGLNMAALLEARSLDVLSEDVLKDLSIFYRKMVPAMERRVITPYQDGPDISCVQAEDGEVFLKEEISLEPNHSPWLSSSLAASPAVAPVTFASIVEEERQQEAALIRSREKPLALIQVEEHAIQDLLVFYEAFGNPDEFVIVERTPQGPVAVPMWNKHGC	failed
MILPEYNETDFMQAVINAAPTPIFYKDAQGRYLGCNKAFEEYIGLNREQLIGKSVLELFDDELARTYFEADNALFERKGTQIYEAKVEYADGTTHDVMFHKAYFHAEGIEGIVGSILDITERKKAEKSLEQLALSDSLTGLDNRYSLMKSLKHSLLRQHRENFTLAFLMLDLDGFKQINDNYGHPVGDALLIEVANKLKNHFRESDVIARVGGDEFSVILENIHSTESLIVLANNILAEFLKPFVIDNNKFTIGISIGIATSSFSECSSEDIIKHADAALYQVKNSGKGSYHLTVVN	failed
MNILLLIGGLILILLGANGLTDGAASVAKRFRIPSIVIGLTIVAFGTSAPELTVSVASALKGSADIAIGNVVGSNIFNTLMIVGCTALFAPIIITRNTLRKEIPLCILSSVVLLICANDIFLDNATENILNRVDGLLLLCFFAIFMGYTFAIAFPKSSAAPEPAAPEHTAPEEEIKLLSWWKSILYIIGGLAALIYGGQLFVNGATGIARSMGVSESIIGLTLVAGGTSLPELATSIVAALKKNPEMAIGNVIGSNLFNIFFVLGCSASITPLHLSGITNFDLFTLVGSSILLWLFGLFFAKRTITRIEGSIMILCYVAYTVVLIYNS	failed
MVINRKIIGSYTQRQIAALLTDEPPSEQPKCNVRVVEMTYTTVGVVGEPARASGVVLVPDGPQCPGPYPVLGWGSATETLRSAEQAKGIISANGDDPLVTRLASQGYVVVSTDYLGLGGSNYPYHPYLHANSEASALIDALRASRTVLQHLNTPLSNKLMLSGFSQGGHTAMATQREIEAHLSNEFSLVASAPISGPYALSQTFLDTWTGRNEVGENNFAIILGTYAIVGMQRTYRNIYSDPSQVFQDPWANQVEALFPGKKDTTDLFLGDDLPAIDQIKEYFQPGFYSDFPKNRKNPFFVDLVRNDLLNWAPRTPTLLCGSDNDTVVPFLKNTNLAIASFKKRGSRQVSVVDIGTGNRKDNSALTHLSSEELCIVKVRNEFLEKKR	failed
AQTDPSQLKKEGSDAFNAKNYPVAYAKFSEYLKQTNNQDSAIAYYCGMAADEVKKYAEAVTFFDIAIQKKFNIGNAYARKALALDAMKKTDEYVATLEEGLKVDPDNKTMIKNYGLHYLKAGIAAQKAGKVEEAEECFKKVIPLDHKTYKTNALYSLGVLCYNDGANILKKAAPLANSDADKYAAEKEKADGRFKEAIGYLEEATKVSPEDTKSKTMLSQVQAAMK	not failed
MPGGRRRGFDDQVALQTAMELFWRQGYEGTSITDLTKALGINPPSLYAAFGSKRDLFEKTLDRYMCERTLQLEEAMVRPTAHEAVLDFLTGRVEVFTAPGQPFGCMTVQAGLASGEPHHEIVDLLTAAREQMRQTVLDRFEKALADGDLPAGTDCTALARYVMAAVYGLSVEAASGAPREELTAAAILAAQVVPRAQM	not failed
GQDTGEDNLAIKGITTLNDLTMVNVSGPGMKGMVGMASRVFGAMSSAGVSIVLITQSSSEYSISFCIEADDKLKAQQVLADAFELELKDGLLEPVDFIDDVSIVTLVGDGMRTSRGVASRFFSSLAEVNVNIVAIAQGSSERAISAVIPEDKISEAIKACHENLFNSKYF	not failed
GGGTRFALVAGTTETAGRAGISAAGADPELMSVTPAADAELVTYGTPVRTDVTPVSPSGCPTPALVTRAAREVLGFDVTVVDGGLAEKTGAPTVSVGARPGKDIAEQDPVSTAHGAFAAARQFGQSLPADELYLGETIPGGTTTALGVLRALGEDGMVSSSLPENPTAQKSEVVAEGLQASSLEPGDAANEPKRAVRRMGDPVLATLAGLTAGAVESDTAVTLAGGSQCVAVAALVRHGGYEGPLGLATTSYVADDESADVRASVDRLDLDLTVTDPGFDRSDHVAMERFVAGEAKEGVGMGGALALADRAGI	failed
MSSVGDFEEIILHDLKPYYHVPGAIHSEGITFVKETGTLLWVDIFKGEVHKVEDIEQPESSHSFFSISRANYGKNASIEYPPNPDELKESVGCIFPILDGASQNEIKQVLFGSKFGIGKLDFSKSEWEYVILYSECPELSTDRAYKLRSNDGNVSPDGKYIYVGLMSDFPFDLEPIGCLLRVDLLAHKIELVWNCLLIPNAIHWDESDQKTMYVTDSLNFTIWKCPGGDLLKRDELIDVKNSNNQSFESPEPDGSAIWFSKDGKHSGFLFITVWSTSKVQMFDLTNGKLLKEFILPEQTPRVSCCCFVGKDLFVTTANAEINDAVRTNTDKNGGCIYKIPNVLDGNVPLESTKRQPLH	failed
